# Results taken from paper PMC4082471 (ChemMedChem, 2014).
# Key:
# [1] = Solubility in aqueous buffer by 1H NMR; type: physicochemical; conditions: for solubility compared to that of PTX alone: qualitative
# [2] = literature value, ref not given; cited from earlier work
# [3] = Stability in aqueous buffer and organic solvents by NMR; type: physicochemical
# [4] = heparinized rat plasma, 400 μM compound, 37 °C, 1D 1H NMR 600 MHz
compound,measurement,setting,value
"CC(=O)O[C@H]1C(=O)[C@@]2(C)[C@H]([C@H](OC(=O)c3ccccc3)[C@]3(O)C[C@H](OC(=O)[C@H](O)[C@@H](NC(=O)c4ccccc4)c4ccccc4)C(C)=C1C3(C)C)[C@]1(OC(C)=O)CO[C@@H]1C[C@@H]2O [PTX, paclitaxel]",solubility in aqueous buffer,[1]; assessed from 1H NMR spectra in aqueous buffer,below 10 μM
same,aqueous solubility,[2],< 10 µg/mL
same,log P,[2],3.96
DYPSMAMYSPSV [DYP-L2-PTX],solubility compared to that of PTX alone,[1],increased solubility
YSAYPDSVPMMS [YSA-L1-PTX],stability in organic solvents,[3]; DMSO or methanol,very stable
same,time within which degradation of the linker in buffer is observed,[3]; aqueous buffer,≤ 10 min
YSAYPDSVPMMS [YSA-L2-PTX],solubility compared to that of PTX alone,[1],increased solubility
ySAYPDSVP(L-Norleucine)(L-Homoserine)S [dYNH-L2-PTX],solubility compared to that of PTX alone,[1],increased solubility
same,degradation after 8 hours incubation with plasma,[4],d-Tyr1 does not appear to be degraded
